Source: the PETadex activity labels (doi:10.1093/ismejo/wraf068)

B1: unnamed (protein)
chain: MSQYDPFLRGPFPAGVKTYEFEDTSRDRKLPIECWYPATSAYKGKDLDKETQDQFQLMEGFPKARQNAVRDAEIVDDSFPLIIFSHGFAGHRRQTTHFCTHLAGHGYIVASIDHIGSTLPEIMQMVMKVRKEGKLPDIEKFMEDVANDRPVDATFTIDTILAGELGPGIDPDRIGITGHSFGGWTTLVTTKSDTRIKAALPLAPGGGKSPLYGKDNPLTKMLTLDWERTVPTLYLTAEFDTLLPLDGMKDMFDRTPEPKGMVVLLNADHFHFCDGVEVVHDFFRQMGGFVGGMDPGGESEPAPMKKAKPSSELCPGKDAYTFIQGIGLAHMDAHLKGNSDAIELLKGDIAALLADRGVKVEVMQG
B2: unnamed (protein)
chain: VEPLADPAKPGPYPVGVTTMLLVDHSRTDNALAGGPRSLMTEIWYPATDDTRGLPKNRLLDFFNRNTDPGFTVLLKMAFGIDLIQADKDFRNDAVRDARVRDGRFPLVLFSHGNGGIRMQNAYWCEHMASHGYIVMAPDHTGNCAVTFIDGRIFPFNDSEEGREQSRQDRPKDISFLIDAMERMNKGADSRFMGKVDLDHIGVAGHSFGGFTSTWVADAEPRVDAIVPMAGAGAERVNYTCPVMVLVATEDDTLGPERMADLRRYYDESKGPRYLVEFLNAGHFSFTEMYQLKPDFGDGCGTGTRITNGEPLTYIAMDVAFPLIKGYTTAFFGKYLKGLDGYDAYLAANHNPNELVVKSSIPETPQ
B3: unnamed (protein)
chain: QNSANVQNEISYDVFDYAQHPMGTIWGDPLPDAPALAARGEYMVGVQTLHLSNPNQTDVINTITSKSTVIYDRPLTVEVWYPATLKAGQVQVTVYCDFLGRYDKPGTLVPYTFLGRATRDAVPDTADGPYPLIIISHGYPGSRHLLFYLGENLASKGYVVVSIDHTDSTYKDVGHFASTLVNRSLDQKFVIREILKMPIWKDLCNPNEVGIIGYSMGGYGALRTLGAGLEDSNTIKGFLGEFASMLIAKPSDEGDPLVKAAVLFAPWGGSFGTGPTGLWDKASLAKITVPTLWIAGSQDDIAGYEGIVNLFNSSVNSRRYLLTYDNALHNVAPHPAPSIATEFGDYYRFADPVWDMWRIDSINEHFVTAFFDLYLKGDESAGSYLDMKVENSNEGVYSDQAESSTYWPGFQPRTALGLKFR
B4: unnamed (protein)
chain: MEKPVVFENEGQQIVGMLHAPDGAEGLSPAVVMFHGFTGTKVEPHRLFVKTARRLAEEGFYVLRFDFRGSGDSEGEFREMTLEGEISDAKASLDFILSQPGVDRGRIGVIGLSMGGGVAACLAGRDERVRAVALWAAVSEDPPDLFQELIKTFEERPDKSVDYVDMGGNLVGKGFFEDLRNVKPLQEISGFEGPVLIVHGDNDQTVSVEHAYRFYERLKGKHPLTALHIIRGADHTFNSHEWEREVIEVTVDFMKRA
B5: unnamed (protein)
chain: VEIHDLHFYNRYNHTVAATIYLPENLNNSPAVIFCGGWLSSREMYSWLPEELAKRGYVVLAIDPSGNGDSYGKLPSFKIFGVRIFSVIDGPYNYINGVWSSDIYDAVTFLTTNYRVSKNVALIGHSMGGFAVTDEALKDGRIKTVIALSDADIYAIKNLKIPVMVITGDFDLIINDNLVAIPGYNAANPPKELIVIKFGTHNGFTNLIWPMPPWNHNVTLYYLSSWLDCFLREDRESCKTLEKPHKYLSTLSESKCNLDGKEKVIKRATGRRKTFTAFLLIFLFLAVLILYLRSKEG
B6: unnamed (protein)
chain: MMKDIAITFREGTIAARIYLPPPVHRAGEPHPGIIILHGYLAQQIQFDDLPRRLARKGYVAITFDMPGHGRSSGKRGYIEKDLQIDAATTVLDHLISLPNVDPKRILVIGHSLGGAMGTYLCARDPRPTAFVAIAPAGSLKRIVPLPARMLFGIPYIIHRIKKRMTGNSLYFHSIVTEHIVWADKRKVKFELERELLQHRQPVDNYRTIFLIDPRIPARKVTIPTIMFLASRDRVVPNRISRELFDNIASDDKTLLTIENSGHSIMSDWKKEDFWKMLVPWLETHIPP
B7: unnamed (protein)
chain: CNDGSGGLEKTTELEPEDIYPLGDYYDPGKTGPYEVGVKTILLADNSRRTMLGHTKRILLTEVWYPILAPGDKINTVGDMIGQLPEWTPQILESFYGENWEDLLNIQTSAWRDAKTFLPDHPFPVIFFSHGLTALRFQNYTLCEHLASHGFLVIAPDHFDNNVFSNIPGHFTWFNPISTVASEFQRPRDIAFLVKHLQTRQSQTATFFGSYADPGRLGITGHSYGGMTSYAAGEQVAEIDAIAPLNPVILVPTTKFFTKPLLLLVGENDNLASSMFNSCEVAKRNYQTHKGNKAFLFLKNSGHYSATDACMLLPPGFINDDITGCGGAMLNPDIANEIVAAYQVAFFSITLKQDARYQDYLNKNNYPDNLDYEVSWK
B8: unnamed (protein)
chain: VGTISFDLVDKERLELYGDKIGEERKFKAQMWYPSDDVTEGERAPWIEDGVKVSRMIPKDIGLPGFLIDYSSLIKSNSYKGVPISEKEEKYPIVIISHGWTGYRNIHTDIGELLASHGYIAISIDHTYGSLATVFDNGEVIEVDYGALPNRNETEDFLDYANALVTTYAYDSRFVLDYLEELDDSELIDGRLDLDRIGTLGHSTGGGGVVKIAIEDDRIKAIFGFDPWVEPIEDELLKIGLDVPSLFIRSEQWEEGYNNGYLTTLINHSVIKPMTYQMNGVNHLDFTMLYMYRPILQAFGFAGELDSQVSSKIQLEYVLKFFETYLKDNETNLNDIEKIYDSVIPVNY

Each protein was assayed on PET (assay: Proxy for plastic degradation [HPLC-UV] (mmol)). Details: pH 8; 30 °C.
In the case of B1, the “Proxy for plastic degradation” value is reported as 0.
In the case of B2, the “Proxy for plastic degradation” value is reported as 0.
In the case of B3, the “Proxy for plastic degradation” value is reported as 0.
In the case of B4, the “Proxy for plastic degradation” value is reported as 0.
With B5 the “Proxy for plastic degradation” value was 0.
With B6 the “Proxy for plastic degradation” value was 0.
With B7 the “Proxy for plastic degradation” value was 0.
With B8 the “Proxy for plastic degradation” value was 0.

Same assay, conditions: pH 8; 60 °C
For B1, the “Proxy for plastic degradation” value was 0.
In the case of B2, the “Proxy for plastic degradation” value is reported as 0.
For B3, the “Proxy for plastic degradation” value was 0.
For B4, the “Proxy for plastic degradation” value was 0.
B5 was tested, and the “Proxy for plastic degradation” value was 0.
For B6, the “Proxy for plastic degradation” value was 0.
With B7 the “Proxy for plastic degradation” value was 0.
In the case of B8, the “Proxy for plastic degradation” value is reported as 0.
